The values that follow come from US20230302100A1.

One test has as its target adalimumab (Humira). Kind of test: cell-based or functional assay.
In another test the target is denosumab (XGEVA). As to the kind of experiment: cell-based or functional assay.

On to “pCART144 (IdeZ with N terminal methionine and histidine tag) (enzyme)”, for which the IgG1 (adalimumab) cleavage, SDS-PAGE titration: enzyme concentration of equal cleavage with adalimumab (Humira) is 4.6 ng/mL. For the same substance, in the test with denosumab (XGEVA), the IgG2 (denosumab) cleavage, SDS-PAGE titration: enzyme concentration giving a dominating F(ab')2 band is 3.3 µg/mL and the IgG2 (denosumab) cleavage, SDS-PAGE titration: enzyme concentration giving a single intense scIgG band turned out to be 0.12 µg/mL.
